This data set deals with the molecule itself. As to the kind of experiment: crystal structure.

Consider one protein from paper doi:10.1101/2020.12.02.409011 (bioRxiv, 2020).

B1: Bacillus subtilis PurR (purine synthesis transcription regulator), untagged (natural protein)
chain: MKFRRSGRLVDLTNYLLTHPHELIPLTFFSERYESAKSSISEDLTIIKQTFEQQGIGTLLTVPGAAGGVKYIPKMKQAEAEEFVQTLGQSLANPERILPGGYVYLTDILGKPSVLSKVGKLFASVFAEREIDVVMTVATKGIPLAYAAASYLNVPVVIVRKDNKVTEGSTVSINYVSGSSNRIQTMSLAKRSMKTGSNVLIIDDFMKAGGTINGMINLLDEFNANVAGIGVLVEAEGVDERLVDEYMSLLTLSTINMKEKSIEIQNGNFLRFFKDNLLKNGETES
Turning to B1, the binding result is “binds”.
